How the values were obtained:
[1] = target: HomA, outer membrane protein of Helicobacter pylori (recombinant, C-terminal His-tag) (Helicobacter pylori strain J99); assay: SDS-PAGE of SEC fractions; monomer and dimer peak fractions of the size exclusion runs on SDS-PAGE with or without beta-mercaptoethanol
[2] = target: HomA, outer membrane protein of Helicobacter pylori (recombinant, C-terminal His-tag) (Helicobacter pylori strain J99); assay: SAXS; ~2.5 mg/ml protein in 20 mM Tris-Cl pH 8, 200 mM NaCl, 5 mM BME; molecular weight from Porod volume, concentration-independent
[3] = target: HomA, outer membrane protein of Helicobacter pylori (recombinant, C-terminal His-tag) (Helicobacter pylori strain J99); assay: SEC; 1 mg protein on Superose 12, 50 mM Tris-Cl pH 8.0, 300 mM NaCl, 4 °C, 0.5 ml/min; alone or with detergents (LDAO, CHAPS, TWEEN 20) or 1 mM lipids (DMPC, DOPC); calibrated with molecular weight markers
[4] = target: HomB, outer membrane protein of Helicobacter pylori (recombinant, C-terminal His-tag) (Helicobacter pylori strain J99); assay: SDS-PAGE of SEC fractions; monomer and dimer peak fractions of the size exclusion runs on SDS-PAGE with or without beta-mercaptoethanol
[5] = target: HomB, outer membrane protein of Helicobacter pylori (recombinant, C-terminal His-tag) (Helicobacter pylori strain J99); assay: SAXS; ~2.5 mg/ml protein in 20 mM Tris-Cl pH 8, 200 mM NaCl, 5 mM BME; molecular weight from Porod volume, concentration-independent
[6] = target: HomB, outer membrane protein of Helicobacter pylori (recombinant, C-terminal His-tag) (Helicobacter pylori strain J99); assay: SEC; 1 mg protein on Superose 12, 50 mM Tris-Cl pH 8.0, 300 mM NaCl, 4 °C, 0.5 ml/min; alone or with detergents (LDAO, CHAPS, TWEEN 20) or 1 mM lipids (DMPC, DOPC); calibrated with molecular weight markers

Measured: stoichiometry N

HomA, outer membrane protein of Helicobacter pylori (recombinant, C-terminal His-tag) (natural protein)
2: [1] | [2] | [3]

HomB, outer membrane protein of Helicobacter pylori (recombinant, C-terminal His-tag) (natural protein)
2: [4] | [5] | [6]

Source: paper PMC8714817
